The values below are quoted from earlier work in article PMC6238587.

This data set addresses PDI (Homo sapiens) (UniProt P07237). The data set is described as follows: surface plasmon resonance. Conditions: cited from earlier work. Background: In SPR one partner is held on a chip, and binding of the other changes the refractive index at the surface.

Chain of PDI (Homo sapiens) (P07237 18-508): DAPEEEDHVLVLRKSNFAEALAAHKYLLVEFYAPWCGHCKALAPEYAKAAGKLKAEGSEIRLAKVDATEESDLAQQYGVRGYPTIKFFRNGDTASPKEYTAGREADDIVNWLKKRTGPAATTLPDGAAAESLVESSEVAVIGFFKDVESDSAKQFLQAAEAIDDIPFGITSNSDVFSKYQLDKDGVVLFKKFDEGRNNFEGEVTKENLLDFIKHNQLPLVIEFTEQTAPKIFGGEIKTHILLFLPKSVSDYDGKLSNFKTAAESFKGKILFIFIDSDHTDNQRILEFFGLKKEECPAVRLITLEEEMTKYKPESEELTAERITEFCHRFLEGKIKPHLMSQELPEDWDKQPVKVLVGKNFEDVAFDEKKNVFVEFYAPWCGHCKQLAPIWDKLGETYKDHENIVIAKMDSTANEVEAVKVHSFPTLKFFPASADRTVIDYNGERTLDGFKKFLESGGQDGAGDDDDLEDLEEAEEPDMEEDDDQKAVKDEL

With Ero1α (from UniProt Q96HE7), the equilibrium dissociation constant (Kd) (usually the constant that tells how readily two partners part at equilibrium) was 2100 nM.
